Substrate: OC(CS)C(O)CS
Test: oxygen consumption, Clark-type oxygen electrode
Assay type: biochemical, Trypanosoma brucei
Conditions: O2 as electron acceptor, air-saturated, 25 °C, 50 nM enzyme, Michaelis-Menten fit of data up to 1 mM DTT (turnover rises beyond the fit above 1 mM)

B1: TbQSOX (Trypanosoma brucei brucei TREU927) (protein)
chain: SVAQVATGSPRPGLFHLDSSVVDLSGDDFSRVHRVAPLCPWIVLFYNDGCGACRRYASTFSKFAGGLKVEHGKDALQIATAAAVNCASEVDLCRKYDINFVPRLFFFYPRDSCRSNEECGTSSLEHVAFENSHLEVDELESEVRRLVNKHMVVDDSLKERCIDMHFKLYTSKEELVKRSVSSTDESGRFVETTELYATDIAGAFFSAMHYDVSLVGTEPRERLTALEDFVLLVKDSLPSIGADGVVSALESITAERPFTVASWQDAVVKSGIPFDGSPRNVRWRTCRGSSPQYRGFPCGMWLLLHALTVNTPADRNVLEVIQNYIRYFFSCKECRDHFIQFNFSPNEDPVLQLWRAHNNVNARLANVKDGADPLVPKRQFPTLEACTECYDGAGNFIEAHVTGFLKQRYLWDPKAVGLMESNDDLNEVDPASKDANVGRNVESSGKGKGDGGARGNSKEVRSDHAG
Km: 65 ± 10 µM

Reference: publication PMC4634331, “Single-molecule spectroscopy exposes hidden states in an enzymatic electron relay” (Nature Communications, 2015)
